Columns and labels:
[1] = target: T1, CD8α (aa 1–206)-(HTR6-CT)-BioID2-HA ( | mouse, UniProt P01732 22-206; Q9R1C8 326-440); assay: proximity labelling; BioID2 proximity biotinylation in HEK293T cells cotransfected with EGFP-TEV-Stag-TULP3 (or S-tagged TULP3-NTD or -CTD) and CD8α(1–206)-(IC3 or CT of a GPCR)-BioID2-HA; 50 μM biotin for the last 16 h; TULP3 purified from lysate by tandem purification (GFP-Trap, TEV digestion, S-protein agarose); its biotinylation detected with NeutrAvidin-HRP, relative to total TULP3 and normalised to the β2AR …; conditions: partners not purified
T1 construct: signal peptide in the construct; CD8α, extracellular and transmembrane regions, aa 1–206; serotonin receptor 6 (HTR6), mouse, C-terminal tail (HTR6-CT, aa 326–440); also called HTR6-CT(WT); wild-type HTR6-CT; source: HEK293T, cotransfected, in cells; not shown: BioID2, C-terminal, kept; HA, C-terminal, kept
T1 sequence (P01732 22-206, tags or fused parts left off): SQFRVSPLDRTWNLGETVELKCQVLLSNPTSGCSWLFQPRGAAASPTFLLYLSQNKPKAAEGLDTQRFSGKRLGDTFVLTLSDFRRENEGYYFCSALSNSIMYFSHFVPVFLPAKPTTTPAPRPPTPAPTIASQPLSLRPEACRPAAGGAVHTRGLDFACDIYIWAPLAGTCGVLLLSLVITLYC

[2] = target: T2, CD8α (aa 1–206)-(SSTR3-CT)-BioID2-HA ( | mouse, UniProt P01732 22-206; P30935 326-428); assay: as above; conditions: partners not purified
T2 construct: signal peptide in the construct; CD8α, extracellular and transmembrane regions, aa 1–206; somatostatin receptor 3 (SSTR3), mouse, C-terminal tail (SSTR3-CT, aa 326–428); source: HEK293T, cotransfected, in cells; not shown: BioID2, C-terminal, kept; HA, C-terminal, kept
T2 sequence (P01732 22-206, tags or fused parts left off): as above

B1: EGFP-TEV-Stag-TULP3 (natural protein, UniProt O75386 1-442, looked up)
chain: MEASRCRLSPSGDSVFHEEMMKMRQAKLDYQRLLLEKRQRKKRLEPFMVQPNPEARLRRAKPRASDEQTPLVNCHTPHSNVILHGIDGPAAVLKPDEVHAPSVSSSVVEEDAENTVDTASKPGLQERLQKHDISESVNFDEETDGISQSACLERPNSASSQNSTDTGTSGSATAAQPADNLLGDIDDLEDFVYSPAPQGVTVRCRIIRDKRGMDRGLFPTYYMYLEKEENQKIFLLAARKRKKSKTANYLISIDPVDLSREGESYVGKLRSNLMGTKFTVYDRGICPMKGRGLVGAAHTRQELAAISYETNVLGFKGPRKMSVIIPGMTLNHKQIPYQPQNNHDSLLSRWQNRTMENLVELHNKAPVWNSDTQSYVLNFRGRVTQASVKNFQIVHKNDPDYIVMQFGRVADDVFTLDYNYPLCAVQAFGIGLSSFDSKLACE
notes: TULP3, ciliary trafficking adapter; the printed limit of its C-terminal domain (aa 184–442) points to a protein of 442 aa; A TEV site lies between EGFP and the S-tag; EGFP is cut off only after the first immunoprecipitation, that is after the labelling in cells; also called S-tagged TULP3; not shown: EGFP, N-terminal, kept; S-tag, N-terminal, kept
[1]
  fold biotinylated TULP3 over β2AR-CT control: 4 fold
[2]
  fold biotinylated TULP3 over β2AR-CT control: 20 fold
